Target: human GLP-1 receptor (GLP-1R), stably expressed in FlpIn CHO cells (human) (UniProt P43220)
Chain of UniProt P43220 (P43220 24-463): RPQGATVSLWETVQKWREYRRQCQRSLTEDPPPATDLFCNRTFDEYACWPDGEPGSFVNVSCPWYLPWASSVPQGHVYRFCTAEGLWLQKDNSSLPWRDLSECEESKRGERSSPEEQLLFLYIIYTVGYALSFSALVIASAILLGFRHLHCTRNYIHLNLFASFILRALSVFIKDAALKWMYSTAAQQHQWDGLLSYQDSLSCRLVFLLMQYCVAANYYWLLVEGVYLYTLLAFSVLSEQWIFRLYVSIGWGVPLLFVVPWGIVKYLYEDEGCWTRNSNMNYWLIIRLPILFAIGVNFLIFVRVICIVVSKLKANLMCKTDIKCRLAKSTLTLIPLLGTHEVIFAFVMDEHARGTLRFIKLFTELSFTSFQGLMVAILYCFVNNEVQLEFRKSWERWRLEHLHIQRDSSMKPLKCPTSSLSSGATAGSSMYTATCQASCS

cAMP accumulation in FlpIn CHO cells stably expressing human GLP-1R, pEC50: 10.8
Substance: glucagon-like peptide-1 [GLP-1(7–37)]

Source: PMC6860926 (Journal of the American Chemical Society, 2019)
